# Non-standard residues stand in square brackets, D forms with d. hArg = N=C(N)NCCCC[C@H](N)C(=O)O
# Target: T1, murine E^d MHC class II allele (Mus musculus, UniProt P01904+P01915)
# T1 sequence (P01904 26-255): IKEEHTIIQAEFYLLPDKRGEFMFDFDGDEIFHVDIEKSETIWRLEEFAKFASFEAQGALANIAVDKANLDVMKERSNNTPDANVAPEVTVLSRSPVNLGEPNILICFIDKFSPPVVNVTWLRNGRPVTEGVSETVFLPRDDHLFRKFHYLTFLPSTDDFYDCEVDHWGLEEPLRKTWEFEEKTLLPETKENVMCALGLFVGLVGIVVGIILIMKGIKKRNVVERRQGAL
# T1 sequence (P01915 27-264 limits assumed): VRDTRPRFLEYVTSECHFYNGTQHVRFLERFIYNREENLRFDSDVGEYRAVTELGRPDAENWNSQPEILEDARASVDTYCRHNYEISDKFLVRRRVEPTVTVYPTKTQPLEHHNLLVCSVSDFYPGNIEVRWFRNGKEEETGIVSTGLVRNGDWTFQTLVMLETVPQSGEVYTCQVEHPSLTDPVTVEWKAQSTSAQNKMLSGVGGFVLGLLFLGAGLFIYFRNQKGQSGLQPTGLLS
# Test: processed antigen assay, E^d allele (APC pulsed with native HEL)
# Type: cell-based
# Set-up: The A20 and CH27 B cell lymphoma lines express H-2^d and H-2^k alleles, respectively; endogenous in cells; host or cells: A20 B cell lymphoma (mitomycin C-treated or paraformaldehyde-fixed)
# Conditions: AE peptide 64 μM; for T cell response relative to baseline (None = 1.0), 5 μM HEL E^d, first value / T cell response relative to baseline (None = 1.0), 5 μM HEL E^d, second value / T cell response relative to baseline (None = 1.0), 10 μM HEL E^d, first value / T cell response relative to baseline (None = 1.0), 10 μM HEL E^d, second value / T cell response relative to baseline (None = 1.0), 20 μM HEL E^d, first value / T cell response relative to baseline (None = 1.0), 20 μM HEL E^d, second value: Table 29; for T cell response relative to baseline (None = 1.0), 5 μM HEL E^d, first value / T cell response relative to baseline (None = 1.0), 5 μM HEL E^d, second value: native HEL prepulse 5 μM; for T cell response relative to baseline (None = 1.0), 5 μM HEL E^d, first value / T cell response relative to baseline (None = 1.0), 10 μM HEL E^d, first value / T cell response relative to baseline (None = 1.0), 20 μM HEL E^d, first value: supernatant dilution 1:4 (first value); for T cell response relative to baseline (None = 1.0), 5 μM HEL E^d, second value / T cell response relative to baseline (None = 1.0), 10 μM HEL E^d, second value / T cell response relative to baseline (None = 1.0), 20 μM HEL E^d, second value: supernatant dilution 1:8 (second value); for T cell response relative to baseline (None = 1.00), E^d: Table 31; for Activity in processed antigen assay, E^d (baseline = 1.0): Table 34, native HEL 10 μM prepulse, supernatant 1:8
# Procedure: In a third type of assay, the “processed antigen assay”, certain of the AE101 series of peptides inhibit stimulation of specific T cell hybridomas by antigenic peptides which are derived from the endogenous processing of a native protein antigen. This assay, which is related to the peptide prepulse assay, is performed by incubating APC with native protein antigen for 8 h, after which the pulsed APC are washed and treated with mitomycin C. Those pulsed APC are then combined with AE101 series peptides and T cell hybridomas and are incubated for 24 h. After that incubation, an aliquot of the culture supernatant is transferred to a second culture to measure T cell stimulation, as reflected in the effect of released interleukins on the growth of an interleukin-dependent, indicator cell line. During the 8 h incubation with native protein antigen, the protein antigen is taken into the APC. The native protein enters the processing pathway within the APC, where it is enzymatically cleaved to peptide fragments. Those peptide fragments with high affinity for the particular MHC class II molecules produced by the APC form antigenic peptide/MHC class II complexes which are transported to the cell surface. At the cell surface, the MHC class II molecules are contacted by the AE101 peptides, which cause the release of the antigenic peptide by the same mechanism proposed for the “peptide prepulse” assay above.
# The “processed antigen assay” was carried out under essentially the same conditions as the “peptide prepulse assay”, with the following modifications. Untreated APC were incubated at 1×10^6/mL in 24-well plates (1 mL/well) with native protein antigen for 8 h. Following that incubation, the pulsed APC were washed, treated with mitomycin C, and washed again. AE101 series peptide was added at 64 μM, 16 μM, 4 μM, and 1 μM concentrations for 24 h in the presence of the T cell hybridoma specific for the antigenic peptide. Interleukin release from these cultures was measured by proliferation of HT-2 cells to interleukins in supernatants transferred from the primary culture. The baseline T cell response was measured by culturing T hybridoma cells with the native antigen-prepulsed APC in the absence of AE101 series peptides.
# The “processed antigen assay” was carried out under essentially the same conditions as the “peptide prepulse” assay, with the following modifications. Untreated APC were incubated at 1×10^6/mL in 24-well plates (1 mL/well) with native protein antigen for 8 h. Following incubation, the pulsed APC were washed, treated with mitomycin C, and were washed again. The assay conditions were then as described for “peptide prepulse” above. The baseline T cell response was measured by culturing T hybridoma cells with the native antigen-prepulsed APC in the absence of AE101 peptides.
# Table 2.9: Activities of substitution series at Leucine^80 in AE114 in a processed antigen assay. […] The results in this assay constitute, relatively, a mirror image of the result in the simultaneous assay (Example 1, Table 7) and parallel those of the antigenic peptide prepulse assay (Example 5, Table 24). Untreated APC were incubated with native HEL, instead of antigenic peptide, for 8 h. After incubation, the pulsed cells were washed and mitomycin C treated before being cocultured with AE-peptides and T cell hybridomas. Wells containing only T cells and native HEL-prepulsed APC were used to determine the Baseline response, or 1, in the absence of AE peptides. The concentration of AE peptide used was 64 μM for these assays. The supernatant dilutions used in the HT-2 cell assay were 1:4 (first value) and 1:8 (second value).
# [1] = Table 30, native HEL prepulse 10 μM, supernatant dilution 1:8
# [2] = native HEL prepulse 10 μM, supernatant dilution 1:4
# [3] = Table 32, native HEL prepulse 20 μM, supernatant dilution 1:4
# [4] = Table 33, native HEL prepulse 10 μM, supernatant dilution 1:8
Substance,"T cell response relative to baseline (None = 1.0), 5 μM HEL E^d, first value","T cell response relative to baseline (None = 1.0), 5 μM HEL E^d, second value","T cell response relative to baseline (None = 1.0), 10 μM HEL E^d, first value (native HEL prepulse 10 μM)","T cell response relative to baseline (None = 1.0), 10 μM HEL E^d, second value (native HEL prepulse 10 μM)","T cell response relative to baseline (None = 1.0), 20 μM HEL E^d, first value (native HEL prepulse 20 μM)","T cell response relative to baseline (None = 1.0), 20 μM HEL E^d, second value (native HEL prepulse 20 μM)","T cell response relative to baseline (None = 1.0), E^d [1]","T cell response relative to baseline (None = 1.00), E^d [2]","T cell response relative to baseline (None = 1.0), E^d [3]","T cell response relative to baseline (None = 1.0), E^d [4]","Activity in processed antigen assay, E^d (baseline = 1.0)"
Ac-LRMK Y PK-NH2 (Ac-LRMKYPK-NH2; not fully specified; printed as Ac-LRMK Y PK-NH2) [AE235],"0.33,",0.38,"0.42,",0.39,"0.71,",0.56,0.19,0.53,0.46,0.45,0.19
Ac-LRMK N PK-NH2 (Ac-LRMKNPK-NH2) [AE232],"0.50,",0.50,"0.68,",0.61,"0.97,",0.83,,0.46,,,
Ac-LRMK M PK-NH2 (Ac-LRMKMPK-NH2) [AE236],"0.41,",0.58,"0.56,",0.53,"0.76,",0.72,,,,,
Ac-LRMK K PK-NH2 (Ac-LRMKKPK-NH2) [AE229],"0.38,",0.58,"0.55,",0.49,"0.71,",0.62,,,,,
Ac-LRMK HArg PK-NH2 (Ac-LRMK[hArg]PK-NH2; SMILES CSCC[C@H](NC(=O)[C@H](CCCNC(=N)N)NC(=O)[C@H](CC(C)C)NC(C)=O)C(=O)N[C@@H](CCCCN)C(=O)N[C@@H](CCCCNC(=N)N)C(=O)N1CCC[C@H]1C(=O)N[C@@H](CCCCN)C(N)=O) [AE227],"0.18,",0.33,"0.18,",0.19,"0.45,",0.36,,0.35,,,
Ac-LRMKLPK-NH2 [AE114],"0.23,",0.37,"0.29,",0.28,"0.53,",0.44,0.22,0.49,0.40,0.37,0.22
Ac-LRMKLP N-NH2 (Ac-LRMKLPN-NH2) [AE246],,,,,,,,,0.72,,
Ac-LRMK F PK-NH2 (Ac-LRMKFPK-NH2) [AE234],"0.51,",0.62,"0.65,",0.60,"0.98,",0.88,,,,,
Ac-LRNKNPF-NH2 [AE348],,,,,,,,0.81,,,
Ac-LRLK HArg PK-NH2 [AE341],,,,,,,,0.12,,,

# From patent publication US6835382B2, “Ii peptide therapeutics to enhance antigen presentation” (University of Massachusetts, priority 1996, dated 2004)
